# Reference: US20140072613A1, “Compositions and Methods for Treating Cutaneous Scarring” (priority 2012, published 2014)
# Assays:
# Assay in all cases: biochemical
# Format in all cases: biochemical
# 266 human kinases [1] = target: T1, 266 human kinases (Homo sapiens, UniProt P54762); conditions: EphB1(h); 100 μM
# T1 sequence (P54762 18-984): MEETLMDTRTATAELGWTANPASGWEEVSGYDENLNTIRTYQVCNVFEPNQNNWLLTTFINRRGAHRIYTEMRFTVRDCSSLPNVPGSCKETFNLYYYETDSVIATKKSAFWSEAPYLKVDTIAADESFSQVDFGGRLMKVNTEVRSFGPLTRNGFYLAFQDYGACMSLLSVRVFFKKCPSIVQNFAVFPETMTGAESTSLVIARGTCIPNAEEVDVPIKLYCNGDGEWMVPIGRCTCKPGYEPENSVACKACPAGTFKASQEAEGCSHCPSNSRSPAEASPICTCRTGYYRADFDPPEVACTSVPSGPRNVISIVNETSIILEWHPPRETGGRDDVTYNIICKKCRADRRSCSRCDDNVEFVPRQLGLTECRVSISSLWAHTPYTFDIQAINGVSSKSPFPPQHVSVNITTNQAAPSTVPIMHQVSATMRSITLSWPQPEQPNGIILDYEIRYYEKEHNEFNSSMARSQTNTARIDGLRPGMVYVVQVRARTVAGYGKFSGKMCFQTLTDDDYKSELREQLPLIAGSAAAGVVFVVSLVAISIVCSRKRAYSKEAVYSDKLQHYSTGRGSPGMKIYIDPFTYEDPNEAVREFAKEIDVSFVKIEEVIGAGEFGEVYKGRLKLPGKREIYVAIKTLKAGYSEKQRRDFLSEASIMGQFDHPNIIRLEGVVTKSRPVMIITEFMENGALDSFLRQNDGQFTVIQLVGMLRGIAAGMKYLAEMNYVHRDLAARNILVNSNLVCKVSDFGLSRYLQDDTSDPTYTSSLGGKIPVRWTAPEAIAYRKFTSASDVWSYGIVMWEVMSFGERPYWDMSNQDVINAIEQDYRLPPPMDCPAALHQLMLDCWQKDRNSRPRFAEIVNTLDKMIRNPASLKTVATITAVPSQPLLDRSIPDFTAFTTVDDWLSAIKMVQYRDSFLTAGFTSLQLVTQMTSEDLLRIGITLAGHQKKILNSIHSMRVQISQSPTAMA
# Outline: (§1)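 Radiometric filter-binding format: a positively charged substrate takes up radiolabelled phosphate from ATP unless the kinase is inhibited, then is captured on a negatively charged filter membrane. Counts from scintillation are expressed relative to a 100% activity control.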
# 266 human kinases [2] = target: 266 human kinases (Homo sapiens, UniProt P68400); conditions: CK2(h); 100 μM
# 266 human kinases (Homo sapiens, UniProt P68400), sequence (P68400 whole entry): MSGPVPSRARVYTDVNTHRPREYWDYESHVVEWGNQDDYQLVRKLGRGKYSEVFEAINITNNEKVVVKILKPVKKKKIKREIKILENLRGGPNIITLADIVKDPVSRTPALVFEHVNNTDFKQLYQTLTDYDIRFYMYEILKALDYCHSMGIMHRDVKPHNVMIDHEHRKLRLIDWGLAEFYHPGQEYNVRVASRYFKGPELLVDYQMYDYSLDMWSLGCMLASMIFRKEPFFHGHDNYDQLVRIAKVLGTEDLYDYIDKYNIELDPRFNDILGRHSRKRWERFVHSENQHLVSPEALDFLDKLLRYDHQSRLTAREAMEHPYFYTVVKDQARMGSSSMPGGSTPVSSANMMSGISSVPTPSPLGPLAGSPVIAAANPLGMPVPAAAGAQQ
# Outline: as §1
# 266 human kinases [3] = target: T2, 266 human kinases (Homo sapiens, UniProt Q8IYT8); conditions: ULK2(h); 100 μM
# T2 sequence (Q8IYT8 1-1036): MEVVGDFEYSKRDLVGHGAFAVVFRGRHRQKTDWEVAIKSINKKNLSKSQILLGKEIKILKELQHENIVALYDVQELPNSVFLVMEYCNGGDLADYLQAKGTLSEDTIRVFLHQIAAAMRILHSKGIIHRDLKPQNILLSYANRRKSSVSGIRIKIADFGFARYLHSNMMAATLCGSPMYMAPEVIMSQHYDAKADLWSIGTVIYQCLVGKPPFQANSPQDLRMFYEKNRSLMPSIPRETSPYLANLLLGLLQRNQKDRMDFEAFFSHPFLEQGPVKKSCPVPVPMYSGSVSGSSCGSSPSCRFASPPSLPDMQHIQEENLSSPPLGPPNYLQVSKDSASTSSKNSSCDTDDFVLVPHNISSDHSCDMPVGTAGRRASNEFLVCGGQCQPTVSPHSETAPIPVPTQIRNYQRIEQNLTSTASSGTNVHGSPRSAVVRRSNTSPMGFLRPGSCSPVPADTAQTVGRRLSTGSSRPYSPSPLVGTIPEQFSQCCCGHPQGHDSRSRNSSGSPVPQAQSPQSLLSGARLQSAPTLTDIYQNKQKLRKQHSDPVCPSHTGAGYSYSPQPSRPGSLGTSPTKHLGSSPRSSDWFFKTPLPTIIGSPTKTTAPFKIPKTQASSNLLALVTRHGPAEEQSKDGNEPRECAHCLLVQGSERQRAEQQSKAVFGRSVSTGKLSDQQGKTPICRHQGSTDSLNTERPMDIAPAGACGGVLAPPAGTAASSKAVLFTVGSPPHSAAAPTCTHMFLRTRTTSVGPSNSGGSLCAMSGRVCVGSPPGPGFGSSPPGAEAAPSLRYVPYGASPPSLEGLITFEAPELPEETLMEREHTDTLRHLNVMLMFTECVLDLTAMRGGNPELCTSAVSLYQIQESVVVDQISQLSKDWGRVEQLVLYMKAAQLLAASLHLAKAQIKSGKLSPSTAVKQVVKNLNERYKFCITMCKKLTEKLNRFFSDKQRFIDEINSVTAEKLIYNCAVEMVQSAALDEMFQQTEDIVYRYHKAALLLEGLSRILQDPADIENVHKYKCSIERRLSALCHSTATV
# Outline: as §1
Sequence,% activity (266 human kinases [1]),% activity (266 human kinases [2]),% activity (266 human kinases [3])
HRRIKAWLKKIKALARQLGVAA (mammal) [MMI-0500],37%,93%,124%
YARAAARQARAKALNRQLGVA (mammal) [MMI-0200],95%,83%,132%
